± gives the half width of the 95% confidence interval.
How the values were obtained:
[1] = folding stability dG unfold from trypsin proteolysis; higher = more stable
Outline: (§1)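 Unfolding free energy was derived, per protease or combined, by relating Bayesian-fitted K50 values from sequencing counts to a sequence-predicted unfolded-state K50 and a shared folded-state K50. The underlying digests exposed cysteine-free mini-proteins under 80 residues, in a PA-tagged cDNA display construct, to trypsin and chymotrypsin at 11 threefold-diluted concentrations and to a no-protease condition. A filter kept only designs with AlphaFold2 dimer inter-PAE above 15.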

[2] = folding stability dG unfold from chymotrypsin proteolysis; higher = more stable
Outline: as §1

[3] = folding stability dG unfold (combined trypsin and chymotrypsin); higher = more stable
Outline: as §1

Sequence	folding stability dG unfold [1] [kcal/mol]	folding stability dG unfold [2] [kcal/mol]	folding stability dG unfold [3] [kcal/mol]
SAGGSAGGWIPPEMARNIAKTLRDKGWPVEDIEVEREPNGWVTVDVDIQYPDGKKRKYPIQIPYSAGGSAGG [r6_762_TrROS]	-0.439 ± 0.22	0.226 ± 0.23	0.0547 ± 0.17
SAGGSAGGWITPDAAKEFADKWGFDDVNVEVLDVDPNNNYVRVKVTARNPKNGNERPIGEFWFPSAGGSAGG [r6_699_TrROS]	0.585 ± 0.056	1.46 ± 0.045	1.2 ± 0.066
SAGGSAGGWREIKIYVPPGMPLEEIKDLIKEFFPGYKVEIDEIEREDNYVKATIRIQPLPPGDFSAGGSAGG [r6_623_TrROS]	3.08 ± 0.092	2.81 ± 0.04	2.96 ± 0.071
SAGGSAGGWRIKIMPMGGKKKKIPIDSPEEIIDKIQKEAKEDGLPGNVRITVEYNGQKRTFTIRSAGGSAGG [r6_532_TrROS]	1.41 ± 0.16	-0.203 ± 0.6	0.658 ± 0.2
SAGGSAGIKAVLNLGDKPVLVLIEPLPDGSFPVIAIFADDGSKVEKVIPASDIGELLSLDPDKLTFSAGGSA [r15_629_TrMRF]	0.859 ± 0.035	0.0558 ± 0.26	0.6 ± 0.18
SAGGSAGKNKPFPLPILIEAHPDDPEEAAERLKAELEALFPGPIKVEIVEVDPEKGIITAIVTVDGSAGGSA [r15_1024_TrMRF]	0.985 ± 0.038	1.58 ± 0.073	1.31 ± 0.096
SAGGSAGKPVLVRVKLRLEFPGTGELAEAEVVVEADSIEDALDRVLKELTLPDFKAEVLDVKAIPLSAGGSA [r2_320_TrMRF]	2.1 ± 0.11	2.03 ± 0.029	2.16 ± 0.13
SAGGSAGMPLVTAPVTRDPNSDVVTLTVYDPRTGETHTYTSPGSVEEAVEAFREATGLPISEVVLESAGGSA [r15_101_JUSTAS]	1.45 ± 0.078	1.44 ± 0.057	1.51 ± 0.099
SAGGSAGMPPDEPVVKTTVIPTSTAVKDAAGNPLTPEELAAAVKAAYPDVEVSFGPGNTLTITLTRSAGGSA [r15_645_JUSTAS]	1.33 ± 0.059	1.11 ± 0.05	1.25 ± 0.091
SAGGSAGMTITSATEVGTTTFNGGSITHYTLTTPSGKTITGEVDPATGTLTISFPETGLSITIPPKSAGGSA [r15_159_JUSTAS]	1.09 ± 0.023	0.729 ± 0.19	1 ± 0.1
SAGGSAGPEITPPVVVVTFTFKFPDGKTIEIPTTDLEEGEKEIEKIKKPLLEKKNIELVKVTTKPVSAGGSA [r15_140_JUSTAS]	-0.607 ± 0.37	-0.389 ± 0.36	-0.583 ± 0.36
SAGGSAGPKVEVELFPVPPFAPGSEFVLLVKTEDGDVILQRFRVKLEGNEPKIEPLGSIVLKPDELSAGGSA [r15_636_TrMRF]	1.08 ± 0.036	2.09 ± 0.062	1.78 ± 0.1
SAGGSAGPPKPGKIELEFEDPSGGKKYKVDIYIYPNNEVKTKALNPDGTPIPEEEIKKILKKLGLKSAGGSA [r15_872_JUSTAS]	0.37 ± 0.082	1.75 ± 0.12	1.29 ± 0.26
SAGGSAGPSVTVDVTFHPGEGTVDVTVTTEGEVVYGKGTFLNPSTVLVEVYFPGSGKVATLTLPVTSAGGSA [r15_837_TrMRF]	1.87 ± 0.066	1.61 ± 0.07	1.73 ± 0.052
SAGGSAGRVRVELELEIVVDTPEEARALAEELARRFPSIVRVEVEVRRRPDGRLVVRVRLEVELPPSAGGSA [r15_726_TrROS_Hall]	3.3 ± 0.061	3.32 ± 0.077	3.31 ± 0.1
SAGGSAGSFVNLGPEESEGVIVVTYYNEDGTTTTATYTYFPSPKTVSSNGPVTVPPNYKLSVSPLLSAGGSA [r15_198_JUSTAS]	0.165 ± 0.051	1.13 ± 0.054	0.818 ± 0.067
SAGGSAGSKPVTINWKITHPDGTPTTIPFSFPTEEQALEEALKAAEALAKEAGYPDFKIEIDEIIPSAGGSA [r15_698_TrMRF]	0.0851 ± 0.091	0.47 ± 0.12	0.358 ± 0.091
SAGGSAGSMSPEEVAERIRQEALARDPNWTVEVTPLPGPRPVLRLEIYRVDPNSDSVTPVSTLVVGSAGGSA [r15_682_JUSTAS]	0.857 ± 0.018	0.516 ± 0.075	0.77 ± 0.086
SAGGSAIFVVKIEPPNGNPITFMFWFKTPEEAESQVEEIAEQLPPDWKVEVEYIPAEDLKNGKPFFSAGGSA [r15_469_TrROS]	2.13 ± 0.045	2.13 ± 0.043	2.2 ± 0.068
SAGGSAIIIPIKSAEEILDQLENNPPGRPIHVWAPDGYWIKIEIDPGKGPKIKITEIYPMPPEEAKSAGGSA [r15_577_TrROS]	0.741 ± 0.026	0.984 ± 0.062	0.896 ± 0.09
SAGGSAIKIIPNGDGIYIKIWFNNQPHPIPIESPEDAEEQVKSILDKFQKRNGMDIPEDMKVEIYPSAGGSA [r15_496_TrROS]	0.419 ± 0.054	1.12 ± 0.14	0.994 ± 0.2

Sequence	folding stability dG unfold [1] [kcal/mol]	folding stability dG unfold [2] [kcal/mol]	folding stability dG unfold [3] [kcal/mol]
SAGGSAIKLPPGEEYTIIMRNPQNGRPFKVPIKRVDPGQIQIEIENPKNGEKQKFTIPANDIEIVKSAGGSA [r15_381_TrROS]	0.0718 ± 0.074	-0.896 ± 0.8	-0.194 ± 0.16
SAGGSAIKLPPGVKIEYHMHPDGYMTITIEYPNGRPIEIPMRMDPNGPREMTPDQIRDFIKELLKNSAGGSA [r15_780_TrROS]	2.42 ± 0.038	2.33 ± 0.026	2.4 ± 0.049
SAGGSAIWIPVDEIRDLLKEFGIDVTVERHPNDGWVEIEIKMRRPNGKKHPIKIWVHPDGYIRIEPSAGGSA [r15_1051_TrROS]	3.23 ± 0.16	4.42 ± 0.15	4.03 ± 0.18
SAGGSAKATLPEGVKIETKTFKLDGRKYMPFVFEAPDDDWVWVNEMRMDPNGKMEMETIWIPPDAVSAGGSA [r15_986_TrROS]	0.368 ± 0.32	0.384 ± 0.44	0.375 ± 0.23
SAGGSAKEVKIKFTRNPDGTLTMEITFEDGYVIRKTFTVKNGKLTEKVEVFPVKLDPETGKLVLLPSAGGSA [r15_746_TrROS_Hall]	2.52 ± 0.078	2.98 ± 0.033	2.84 ± 0.087
SAGGSAKGLKVTFSHPDVEILSVKSYPGLGLAEVEFRYGDKLYRALVRFEPDDGGIAEATVEPVPGSAGGSA [r15_297_TrMRF]	1.58 ± 0.024	2.844 ± 0.026	2.55 ± 0.079
SAGGSAKIEIPIMIPMPPGQEFDLKIRIPNLWKIKIERIYVSPDPGWIMFRIEIEPVAPPNDPEQMSAGGSA [r15_994_TrROS]	2.92 ± 0.17	3.64 ± 0.071	3.34 ± 0.21
SAGGSAKIKIPKSYTAEILDASYDPETKTVTVKIKLFGKPATATIYPDGTVEIDLPNGKKITIPVGSAGGSA [r15_111_TrMRF]	1.47 ± 0.083	2.62 ± 0.04	2.27 ± 0.099
SAGGSAKIPVMFMIESPEQIIELVDEFAPPGHEVKVKIDNVEPFPMREDGEERPYYMFRVTIEFPPSAGGSA [r15_95_TrROS]	1.64 ± 0.07	1.84 ± 0.16	1.78 ± 0.14
SAGGSAKITIEYDPETGTITIKVELTNEDNGKKVTKEYEIKVDGKLIRIKIDANTGEIVEIEVLPPSAGGSA [r2_331_TrROS_Hall]	3.52 ± 0.17	3.38 ± 0.13	3.55 ± 0.15
SAGGSAKITIHMAPDGMFQIEIKTGGKERTYHVDMPLEQIKDELEDEGLEIKDIEITPFPPDPEDFSAGGSA [r15_576_TrROS]	-1.13 ± 0.93	-0.146 ± 0.095	-0.409 ± 0.16
SAGGSAKITLWIWMPPGNPDKMAEEIADYLAERHGWTVKIKDVQIERDPEDDQVWIPVKIEIQPPPSAGGSA [r15_70_TrROS]	1.98 ± 0.14	1.39 ± 0.31	1.91 ± 0.39
SAGGSAKKDGTITIKIPVKAPKDKNGKVFKPSAEAIKAKFGELGFDFEIEEIKESETYLEIKIKVKSAGGSA [r15_225_TrMRF]	0.51 ± 0.086	1.78 ± 0.093	1.53 ± 0.21
SAGGSAKKEVYKINIKVYNKNGKKVKEIKIELPEELKGKTIEEIAKELAKKLNIEKIEVKIEPVKPSAGGSA [r15_333_TrROS_Hall]	1.61 ± 0.18	3.19 ± 0.1	2.78 ± 0.21
SAGGSAKKPEVTVEIEIVLPKEELEELLEALRKLPGLKVEVEEVEVREDGYVRVKLRITLPPGVKPSAGGSA [r15_441_TrROS_Hall]	2.39 ± 0.062	3.48 ± 0.046	3.19 ± 0.12
SAGGSAKKPKPGRLFLRYEEPEKGEVVEAVLTVYPNNVVELEVRRPDGKPVPLEKALKLLKELGLLSAGGSA [r15_872_TrMRF]	1.54 ± 0.046	2.12 ± 0.1	1.86 ± 0.14
SAGGSAKKTYIIKIPVKEIVVKDKKTGKYKPISAEELAKLLEEKTGLKVEIVEVKDGYIVIKVKEKSAGGSA [r15_55_TrROS_Hall]	2.26 ± 0.091	2.96 ± 0.045	2.74 ± 0.13
SAGGSAKLSAEEIAKLLKKLFPEVKEIKVKVEVNGKLYEVKIKVEKVKKKEKKKVEGMSEEEKKKLSAGGSA [r15_156_TrROS_Hall]	2.06 ± 0.19	2.33 ± 0.1	2.35 ± 0.32
SAGGSAKLTAEEIKKLPPNARIYFDKETGRVFIEVDGKLVVIEIDKETKEVKVVKVFPSKEALEKASAGGSA [r15_6_TrROS_Hall]	1.57 ± 0.054	1.86 ± 0.1	1.82 ± 0.12
SAGGSAKLTIELVISDMSPEDAEIAAENIRIELIKKGIPEEEIENVDIKVIVAPVYLDEDNNLILGSAGGSA [r15_684_TrMRF]	0.533 ± 0.019	0.657 ± 0.035	0.694 ± 0.058
SAGGSAKMTLIIKVSPEMTKEELEELARKLAEELNVKVEIEYDEETGLATVTIEKDGKKIEIIVERSAGGSA [r15_168_TrROS_Hall]	1.98 ± 0.083	2.74 ± 0.094	2.49 ± 0.12
